Assay [1] deals with T1, human CLL1 on the surface of transfected cells (HEK293-CLL1; HEK-293T membrane proteome array) (human, UniProt Q5QGZ9 1-265).
T1 construct: whole, on cells; also called HEK293-CLL1 cells; CLL1 target antigen
T1 sequence (looked up): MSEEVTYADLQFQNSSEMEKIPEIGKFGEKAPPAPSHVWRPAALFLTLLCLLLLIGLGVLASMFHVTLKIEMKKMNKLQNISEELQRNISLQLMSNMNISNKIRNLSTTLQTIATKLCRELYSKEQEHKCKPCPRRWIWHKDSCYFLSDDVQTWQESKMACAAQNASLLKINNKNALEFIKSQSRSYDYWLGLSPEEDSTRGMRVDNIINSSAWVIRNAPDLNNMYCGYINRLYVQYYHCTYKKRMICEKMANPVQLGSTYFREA
Description: flow cytometry on HEK293 cells overexpressing CLL1. From the text: In the present example, flow cytometry was used to detect the binding of antibodies hz27H4H1L1, hz27H4H1L2 and CLL1 on HEK293 cells.
For orientation: Flow cytometry measures light scatter and fluorescence of single cells or particles in a stream.

In assay [2] the target is T2, Recombinant Cynomolgus Monkey CLL-1 Protein (his), Acro CLA-H5263 (cynomolgus monkey, UniProt A0A2K5WXQ4 71-271).
T2 construct: also called Analyte 2
T2 sequence: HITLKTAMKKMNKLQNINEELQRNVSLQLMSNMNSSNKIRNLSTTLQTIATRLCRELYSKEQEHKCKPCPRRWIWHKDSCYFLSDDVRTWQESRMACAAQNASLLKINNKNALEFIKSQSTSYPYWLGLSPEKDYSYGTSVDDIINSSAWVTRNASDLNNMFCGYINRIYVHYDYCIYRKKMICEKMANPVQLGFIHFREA
In words: SPR, antibody captured on Protein A chip, cynomolgus CLL-1 as analyte. In general terms: SPR reads the build-up and loss of mass on a sensor chip optically.

The target in assay [3] is T3, human CLL1 ECD-His (human CLL1 extracellular domain with His tag) (human, UniProt Q5QGZ9 65-265).
T3 construct: also called antigen human CLL1 ECD-His; antigen CLL1; not shown: His tag
T3 sequence: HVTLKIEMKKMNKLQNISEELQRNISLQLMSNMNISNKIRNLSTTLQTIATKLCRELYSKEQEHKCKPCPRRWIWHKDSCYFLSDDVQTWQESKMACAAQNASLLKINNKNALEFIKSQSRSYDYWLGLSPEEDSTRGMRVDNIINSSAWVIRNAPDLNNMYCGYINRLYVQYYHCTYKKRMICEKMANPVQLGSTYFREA
In words: BLI (ForteBio), antibody on AHC sensor, 60 nM human CLL1 ECD-His, 1:1 model. On the procedure:
In short, 4 μg/mL antibody was loaded on the anti-human IgG capture (AHC) biosensor, the sensor was equilibrated offline for 30 min in the assay buffer, and the online monitoring was used for 60 s to establish the baseline; the antibody-loaded sensor was incubated with the 60 nM antigen human CLL1 ECD-His for 3 min, then transferred to the assay buffer, and the dissociation rate was measured after 3 min; the kinetic analysis was performed using a 1:1 binding model.

The target in assay [4] is T4, Recombinant Human CLL-1 Protein (his), Acro CLA-H5245 (human, UniProt Q5QGZ9 65-265).
T4 construct: also called Analyte 1; not shown: his tag
T4 sequence (looked up): T3 sequence
In words: SPR, antibody captured on Protein A chip, recombinant human CLL-1 as analyte 3.125-50 nM, 1:1 model.

B1: humanized antibody hz27H4H1L2 (antibody, V domains shown)
VH: EVQLVQSGAEVKKPGASVKVSCKASGYTFTGYHMHWVRQAPGQRLEWMGRINPYNGAASHNQKFKDRVTITRDTSASTAYMELSSLRSEDTAVYYCARGWDYDGGYYAMDYWGQGTLVTVSS
VL: DIVMTQSPLSLPVTPGEPASISCKSSQSLLYSDNQKNYLAWYLQKPGQSPQLLIYWASTRESGVPDRFSGSGSGTDFTLKISRVEAEDVGVYYCQQYYTYPYTFGQGTKLEIK
notes: Heavy chain variable region hz27H4H1 with light chain variable region hz27H4L2; also called h27H4H1L2 (complete antibody)
In turn, B1 returned a concentration for a half-maximal effect (EC50) in assay [1] of 0.321 µg/mL. Further, the binding result in assay [2] is given as “no binding (tested: 50 nM)”. In assay [3], this molecule yielded an equilibrium dissociation constant (Kd) of 2.21 nM, a Response of 0.726, a koff of 0.000976 s⁻¹ and an on-rate (kon) of 441000 M⁻¹ s⁻¹. In assay [4], the dissociation constant Kd was 1.08 nM, the dissociation rate constant (koff) was determined as 0.00544 s⁻¹ and the on-rate (kon) came to 5.04e+06 M⁻¹ s⁻¹.

Usually EC50 stands for the concentration needed to bring the measured effect to its halfway point. The Kd is the equilibrium constant for the complex coming apart. For orientation: koff means a measure of how fast the partners let go of each other. The term kon denotes a measure of how fast the partners come together.

The values above are taken from patent publication US20220396626A1 (GUANGZHOU BIO GENE TECHNOLOGY, published 2022).
